Reference: publication PMC12830090

Key:
Assay in all cases: NMR
Cys31 = Cys31 (UniProt position 31, FGTDWCGHCQA); settings: 298 K; reduced (dithiol) Patrx2, with DTT
Cys34 = Cys34 (UniProt position 34, DWCGHCQAAQP); settings: 298 K; reduced (dithiol) Patrx2, with DTT
His33 = His33 (UniProt position 33, TDWCGHCQAAQ); settings: 298 K

Substance: Patrx2 (atypical thioredoxin, PA2694) (Pseudomonas aeruginosa)
- pKa (Cys31): 5.8
- pKa (Cys34): greater than 11.5
- pKa (His33; oxidised (C31-C34 disulfide) Patrx2, without DTT): less than 5
- pKa (His33; reduced (dithiol) Patrx2, with DTT): 6.3
